Reference: patent US20090124546A1 (EBERHARD KARLS UNIVERSITAET TUEBINGEN UNIVERSITAETSKILINIKUM, published 2009)

Molecular target: the molecule itself
Assay: SDS-PAGE and Western blot of synthetic peptide (self-association)
Procedure: Western blot analysis. After physical exercise sweat of the forehead was collected and analyzed by Western blot as already described (Rieg, S. et al. 2006 J. Investig. Dermatol. 126:354-365). Briefly, sweat was centrifuged 3 min at 13,000 rpm (16,000×g) to remove particles and frozen. Then, 15-μl portions of the samples and 4 μg of the DCD peptides LEK-45 and DCD-1L dissolved in water were separated by sodium dodecyl sulfate-polyacrylamide gel electrophoresis (using 15% acrylamide with 0.05% bisacrylamide), transferred electrophoretically (1200 mA/h) onto polyvinylidene difluoride membrane sheets (Immobilon-PSQ; Millipore, Germany) with a tank type blotter and then blocked in 10% nonfat milk in PBS (pH 7.4) for 30 min at room temperature. After incubation with a rabbit polyclonal anti-DCD antibody (1:2,000) that detects the C terminus of DCD-1L overnight at 4° C., the membrane sheets were washed with phosphate buffer and incubated with an anti-rabbit secondary biotin-conjugated polyclonal antibody (1:1,500 in blocking solution). After washing in phosphate buffer the Streptavidin-AP-conjugate (Roche, Mannheim, Germany) was used for the detection of biotin-labeled secondary antibody. The membrane was immersed in CDP-Star solution (Western Lightning chemiluminescence reagents for AP; Roche) for 10 min and then exposed to X-ray film (Eastman Kodak, Rochester, N.Y.).

Protein	binding result
SSLLEKGLDGAKKAVGGLGKLGKDAVEDLESVGKGAVHDVKDVLDSVL (also called synthetic peptide DCD-1L) [DCD-1L]	binds
LEKGLDGAKKAVGGLGKLGKDAVEDLESVGKGAVHDVKDVLDSVL [LEK-45]	binds
